Test results taken from publication PMC4168779.

What follows are substances tested against Z protein fused to maltose binding protein, MBP-Z(N6C) (assay: cross-linking).

Substance	PEPC efficiency (cross-linking efficiency)
ZSPA affibody (Afb) with BetY at site 36 (designed binder)	57%
ZSPA affibody (Afb) with BrC6K at site 36, Afb(D36BrC6K) (designed binder)	73%
ZSPA affibody (Afb) with IetY at site 36 (designed binder)	66%
